Laboratory results as given in US20260049134A1 (UNIVERSITY OF FLORIDA RESEARCH FOUNDATION, published 2026).

T1: SLAMF7
T1 construct: also called SLAMF7-StrepTag; not shown: StrepTag and any linker
T1 chain: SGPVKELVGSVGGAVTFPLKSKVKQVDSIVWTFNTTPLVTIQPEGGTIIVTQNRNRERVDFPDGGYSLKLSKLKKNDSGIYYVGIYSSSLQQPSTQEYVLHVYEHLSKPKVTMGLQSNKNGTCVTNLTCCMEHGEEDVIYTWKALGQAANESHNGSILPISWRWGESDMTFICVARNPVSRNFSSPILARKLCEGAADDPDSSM

T2: HHLA2
T2 construct: also called HHLA2-Fc (R&D Systems); B7-H7; not shown: Fc part and any linker
T2 chain: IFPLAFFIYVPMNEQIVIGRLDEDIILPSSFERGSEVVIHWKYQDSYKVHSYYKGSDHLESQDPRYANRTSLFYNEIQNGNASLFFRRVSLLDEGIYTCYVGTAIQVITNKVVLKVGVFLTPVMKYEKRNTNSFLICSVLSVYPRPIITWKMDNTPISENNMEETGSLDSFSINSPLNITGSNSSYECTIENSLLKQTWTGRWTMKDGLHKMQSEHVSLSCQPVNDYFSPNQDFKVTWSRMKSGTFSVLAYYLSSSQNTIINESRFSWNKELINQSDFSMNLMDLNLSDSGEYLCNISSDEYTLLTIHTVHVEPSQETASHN

T3: IL13RA1
T3 construct: also called IL13RA1-Fc-His (R&D Systems)
T3 chain: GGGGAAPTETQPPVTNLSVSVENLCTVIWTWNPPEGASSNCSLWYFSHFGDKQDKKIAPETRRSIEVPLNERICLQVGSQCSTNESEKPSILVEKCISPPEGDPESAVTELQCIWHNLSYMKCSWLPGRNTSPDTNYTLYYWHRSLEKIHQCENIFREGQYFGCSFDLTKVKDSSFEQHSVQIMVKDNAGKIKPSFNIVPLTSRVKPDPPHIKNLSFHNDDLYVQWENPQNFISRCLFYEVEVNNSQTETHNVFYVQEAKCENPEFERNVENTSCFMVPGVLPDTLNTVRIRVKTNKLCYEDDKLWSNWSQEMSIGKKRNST

T4: SELL
T4 construct: also called SELL-Fc-His (R&D Systems); L-Selectin
T4 chain: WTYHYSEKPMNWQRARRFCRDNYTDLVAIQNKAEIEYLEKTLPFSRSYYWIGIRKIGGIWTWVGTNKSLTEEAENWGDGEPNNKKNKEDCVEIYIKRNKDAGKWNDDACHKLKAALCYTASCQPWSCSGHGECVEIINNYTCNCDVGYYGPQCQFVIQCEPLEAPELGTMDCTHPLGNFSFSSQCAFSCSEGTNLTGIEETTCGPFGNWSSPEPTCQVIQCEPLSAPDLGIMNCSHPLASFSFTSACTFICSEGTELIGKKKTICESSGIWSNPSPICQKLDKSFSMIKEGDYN

T5: GARS-His (Sino Biological) (human, UniProt P41250 37-739, limits assumed)
T5 construct: Bought; also called GARS1; glycyl-tRNA synthetase; not shown: His tag of the bought protein
T5 sequence: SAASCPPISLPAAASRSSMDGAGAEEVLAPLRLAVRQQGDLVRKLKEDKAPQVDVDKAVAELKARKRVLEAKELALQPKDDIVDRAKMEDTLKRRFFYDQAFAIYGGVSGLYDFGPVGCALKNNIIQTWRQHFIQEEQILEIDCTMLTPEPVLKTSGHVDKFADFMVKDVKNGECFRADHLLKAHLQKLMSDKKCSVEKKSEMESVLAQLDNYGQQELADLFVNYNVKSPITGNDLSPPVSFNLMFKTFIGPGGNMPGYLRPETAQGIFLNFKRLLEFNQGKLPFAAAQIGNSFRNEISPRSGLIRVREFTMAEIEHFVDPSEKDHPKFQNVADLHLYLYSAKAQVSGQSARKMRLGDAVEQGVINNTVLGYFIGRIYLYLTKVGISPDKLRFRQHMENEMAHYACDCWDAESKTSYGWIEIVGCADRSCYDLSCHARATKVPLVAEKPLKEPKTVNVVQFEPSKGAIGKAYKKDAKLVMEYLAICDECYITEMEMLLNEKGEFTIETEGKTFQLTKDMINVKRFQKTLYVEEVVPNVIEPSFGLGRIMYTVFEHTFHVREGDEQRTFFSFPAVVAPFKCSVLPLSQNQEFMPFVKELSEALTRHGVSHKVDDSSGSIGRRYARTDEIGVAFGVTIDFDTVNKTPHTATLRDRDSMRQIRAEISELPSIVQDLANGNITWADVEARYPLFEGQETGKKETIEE

T6: GARS, endogenous in H929 multiple myeloma cells (human, UniProt P41250 37-739, limits assumed)
T6 construct: Native protein pulled down from H929 lysates; also called Glycyl-tRNA synthetase; GlyRS
T6 sequence: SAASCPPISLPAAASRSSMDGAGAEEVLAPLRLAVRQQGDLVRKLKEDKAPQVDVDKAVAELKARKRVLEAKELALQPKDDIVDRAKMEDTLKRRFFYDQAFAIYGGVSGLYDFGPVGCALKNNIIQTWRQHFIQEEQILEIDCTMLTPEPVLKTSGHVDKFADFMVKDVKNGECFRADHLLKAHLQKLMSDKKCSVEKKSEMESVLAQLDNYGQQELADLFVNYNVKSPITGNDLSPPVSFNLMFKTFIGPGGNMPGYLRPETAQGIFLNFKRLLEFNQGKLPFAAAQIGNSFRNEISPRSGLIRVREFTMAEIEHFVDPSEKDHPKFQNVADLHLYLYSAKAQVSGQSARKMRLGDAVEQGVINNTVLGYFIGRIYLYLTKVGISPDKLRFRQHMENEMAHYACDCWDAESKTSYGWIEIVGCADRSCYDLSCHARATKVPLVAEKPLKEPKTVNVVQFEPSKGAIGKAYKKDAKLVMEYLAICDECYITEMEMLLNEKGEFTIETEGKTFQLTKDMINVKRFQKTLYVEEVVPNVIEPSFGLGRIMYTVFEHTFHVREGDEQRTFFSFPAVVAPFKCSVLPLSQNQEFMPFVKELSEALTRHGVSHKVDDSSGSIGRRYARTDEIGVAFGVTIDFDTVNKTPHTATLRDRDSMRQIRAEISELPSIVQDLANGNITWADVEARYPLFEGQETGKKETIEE


Assays:
[1] = target: T7, PTP4A3; test: ELISA on coated protein
T7 construct: also called His-PTP4A3 (R&D Systems)
Procedure: (§1) Recombinant purified ECDs (50-150 ng) of each putative target protein were coated, incubated with 150 ng of the indicated primary antibody, and binding was detected using a peroxidase-conjugated anti-human Fab secondary antibody. Heatmap represents averages of technical triplicates. (8B) Target validation via siRNA knockdown. H929 cells were transfected with siRNA pools targeting the putative antibody targets ICAM1, CADM1, and PTPRG. Cells were then subjected to cognate IgG binding analysis via flow cytometry. (NT, non-targeting siRNA).
(§2) ELISA ELISA was conducted as described previously. Briefly, 50-150 ng of antigen was coated overnight in half-area 96-well plates at 4° C., blocked with 3% BSA at 37° C. for 1 h, and 150 ng of chimeric rabbit/human IgG1 was added, incubating for 2 h at 37° C. […] After incubating at 37° C. for 15 min-1 h (depending on intensity of controls), data were acquired using a SpectraMax M5 plate reader (Molecular Devices).

[2] = target: T1, SLAMF7; test: ELISA on coated protein
Procedure: as §1, §2

[3] = target: T2, HHLA2; test: ELISA on coated protein
Procedure: as §1, §2

[4] = target: T3, IL13RA1; test: ELISA on coated protein
Procedure: as §1, §2

[5] = target: T4, SELL; test: ELISA on coated protein
Procedure: as §1, §2

[6] = target: T5, GARS-His (Sino Biological); test: ELISA on coated protein
Procedure: as §1, §2

[7] = target: T6, GARS, endogenous in H929 multiple …; test: flow cytometry, H929 + ICAM1 siRNA; None 455; surface target GARS putative
[8] = target: T6, GARS, endogenous in H929 multiple …; test: flow cytometry, H929 + vehicle; None 2.74; surface target GARS putative

T7 sequence (chain, as listed by the source limits assumed): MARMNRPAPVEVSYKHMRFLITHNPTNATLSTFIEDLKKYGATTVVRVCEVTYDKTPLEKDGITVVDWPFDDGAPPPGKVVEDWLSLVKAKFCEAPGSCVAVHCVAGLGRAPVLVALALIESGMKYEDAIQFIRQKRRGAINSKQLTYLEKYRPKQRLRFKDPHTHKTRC

| mAb binding (MFI) [7] | Cells stained (%) [8] [%] | Binder | binding result [1] | binding result [2] | binding result [3] | binding result [4] | binding result [5] | binding result [6] |
| --- | --- | --- | --- | --- | --- | --- | --- | --- |
|  |  | HW-70 chimeric rabbit-human IgG1 LA/LA/PG (antibody, V domains shown, Fc-silenced (L234A/L235A/P329G) IgG1, lambda; Alexa Fluor 647-labeled in single-step flow cytometry; Cluster C-1) VH: QSLEESGGRLVTPGTPLTLTCTVSGFSLSSNAMSWVRQAPGKGLEWIGTIDGYGYTYYASWAKGRFTVSKTSTTVDLKITSPTTEDTATYFCAREIYLGSNFWGPGTLVTISS VL: SFVLTQPASVQVNLGQTVSLTCTADTLSRRYASWYQQKPGQAPVLLIYRDTSRPSGVPDRFSGSSSGNTATLTISGAQAGDEADYYCATADGSGSSYQFVFGGGTQLTVTG | no binding (tested: 150 ng IgG1 per well) | no binding (tested: 150 ng IgG1 per well) | no binding (tested: 150 ng IgG1 per well) | no binding (tested: 150 ng IgG1 per well) | no binding (tested: 150 ng IgG1 per well) |  |
|  |  | HW-113 chimeric rabbit-human IgG1 LA/LA/PG (antibody, V domains shown, Fc-silenced (L234A/L235A/P329G) IgG1, lambda; Alexa Fluor 647-labeled in single-step flow cytometry) VH: QKQLVESGGGLVQPGGSLTLTCTVSGFSLNKYYMGWFRQAPGKGLEWIGVISRSGDTYYSSWAKGRFTISKASTTVDLRITSPTTEDTATYFCARDASSPGFHGDRLDLWGQGTLVTVSS VL: SFVLTQPASVQVNLGQTVSLTCTADTLSRSYASWYQQKPGQAPVLLIYRDTSRPSGVPDRFSGSSSGNTATLTISGAQAGDEADYYCATSDGIGSNYLWVFGGGTQLTVTG | no binding (tested: 150 ng IgG1 per well) | no binding (tested: 150 ng IgG1 per well) | no binding (tested: 150 ng IgG1 per well) | no binding (tested: 150 ng IgG1 per well) | no binding (tested: 150 ng IgG1 per well) | no binding (tested: 150 ng IgG1 per well) |
| 20800 | 96.8 | HW-45 chimeric rabbit-human IgG1 LA/LA/PG (antibody, V domains shown, Fc-silenced (L234A/L235A/P329G) IgG1, lambda; Alexa Fluor 647-labeled in single-step flow cytometry; Prototype of cluster C-45) VH: QKQLVESGGRLVTPGTPLTLTCTVSGFSLSSYAMGWFRQAPGKGLEWIGIINSYGSTYYASWAKGRFTISKTSTTVDLKITSPTTEDTATYFCGRRIGSARFDPWGPGTLVTVSS VL: SFVLTQPASVQVNLGQTVSLTCTADTLSRSYASWYQQKPGQAPVLLIYRDTRRPSGVPDRFSGSSSGNTATLTISGAQAGDEADYYCATSDGSGSSYRLVFGGGTQLTVTG |  |  |  |  |  |  |
|  |  | HW-25 chimeric rabbit-human IgG1 LA/LA/PG (antibody, V domains shown, Fc-silenced (L234A/L235A/P329G) IgG1, lambda; Alexa Fluor 647-labeled in single-step flow cytometry; Cluster C-1) VH: QSLEESGGRLVTPGTPLTLTCTVSGFSLSSYAMGWVRQAPGKGLEWIGIIDSRGSTYYATWAKGRFTISKTSTTVDLKITSPTTEDTATYFCAREDSYYYDSFNLWGPGTLVTVSS VL: SFVLTQPASVQVNLGQTVSLTCTADTLSRRYASWYQQKPGQAPVLLIYRDTSRPSGVPDRFSGSSSGNTATLTISGAQAGDEADYYCATSDGSGSSYQCVFGGGTQLTVTG | no binding (tested: 150 ng IgG1 per well) | no binding (tested: 150 ng IgG1 per well) | no binding (tested: 150 ng IgG1 per well) | no binding (tested: 150 ng IgG1 per well) | no binding (tested: 150 ng IgG1 per well) |  |
| 33900 | 98.6 | HW-28 chimeric rabbit-human IgG1 LA/LA/PG (antibody, V domains shown, Fc-silenced (L234A/L235A/P329G) IgG1, lambda; Alexa Fluor 647-labeled in single-step flow cytometry; Cluster C-45) VH: QKQLVESGGRLVTPGTPLTLTCTASGFSLSSNAMSWVRQAPGEGLQWIGTISSGGSTYYASWAKGRFTISKTSTTVTLKMTSLTTEDTATYFCARGADLHRLWGPGTLVTVSS VL: SFVLTQPASVQVNLGQTVSLTCTGKPLSRSFASWYQQKPGQAPVLVIYRDTSRPSGVPDRFSGSSSGNTATLTISGAQAGDEADYYCATSDGSGSSYQYVFGGGTQLTVTG |  |  |  |  |  |  |
